Data from patent US20100144025A1.

Target: HLA-A2 molecule (the product of HLA-A*0206 gene) (human)

| Binder | -log Kd |
| --- | --- |
| IVLEHGSCV (modifications not checked) [SEQ ID NO 27] | 6.02 -log Kd |
| LVISGLFPV (modifications not checked) [SEQ ID NO 41] | 6.61 -log Kd |
| LALLAAFKV (modifications not checked) [SEQ ID NO 43] | 6.47 -log Kd |
| HVLGRLITV (modifications not checked) [SEQ ID NO 45] | 6.25 -log Kd |
| YVVIAILTV (modifications not checked) [SEQ ID NO 47] | 5.86 -log Kd |
| SVIEKMEAL (modifications not checked) [SEQ ID NO 48] | 6.37 -log Kd |
| RTLRVLNLV (modifications not checked) [SEQ ID NO 49] | 5.97 -log Kd |
| QILEENVEV (modifications not checked) [SEQ ID NO 50] | 5.61 -log Kd |

Target: HLA-A24 molecule (the product of HLA-A*2402 gene) (human)

| Binder | -log Kd |
| --- | --- |
| WYAQIQPHW (modifications not checked) [SEQ ID NO 1] | 8.64 -log Kd |
| ALSELPETL (modifications not checked) [SEQ ID NO 12] | 5.5 -log Kd |
| YMPSVIEKM (modifications not checked) [SEQ ID NO 15] | 7.17 -log Kd |
| KLMKITAEW (modifications not checked) [SEQ ID NO 16] | 7.21 -log Kd |
| IQKETLVTF (modifications not checked) [SEQ ID NO 18] | 7.24 -log Kd |
| ALHQVFGAI (modifications not checked) [SEQ ID NO 19] | 6.05 -log Kd |
| GFLNEDHWF (modifications not checked) [SEQ ID NO 20] | 6.76 -log Kd |
| ALVAFLRFL (modifications not checked) [SEQ ID NO 21] | 5.68 -log Kd |
| AFSGVSWTM (modifications not checked) [SEQ ID NO 2] | 8.19 -log Kd |
| PMSTYGWNL (modifications not checked) [SEQ ID NO 22] | 7.62 -log Kd |
| AYNHALSEL (modifications not checked) [SEQ ID NO 23] | 7.68 -log Kd |
| DWIPLALTI (modifications not checked) [SEQ ID NO 25] | 8 -log Kd |
| ELPETLETL (modifications not checked) [SEQ ID NO 9] | 7.01 -log Kd |
| PFPQSNAPI (modifications not checked) [SEQ ID NO 5] | 8.22 -log Kd |
| HWPKSHTLW (modifications not checked) [SEQ ID NO 7] | 8.66 -log Kd |
| GLNPTAIFL (modifications not checked) [SEQ ID NO 8] | 6.39 -log Kd |
| AWLVHRQWF (modifications not checked) [SEQ ID NO 10] | 8.39 -log Kd |
| TLYAVATTF (modifications not checked) [SEQ ID NO 11] | 7.58 -log Kd |

Target: HLA-A2 molecule (the product of HLA-A*0201 gene) (human)

| Binder | -log Kd |
| --- | --- |
| ALSELPETL (modifications not checked) [SEQ ID NO 12] | 6.05 -log Kd |
| YMPSVIEKM (modifications not checked) [SEQ ID NO 15] | 6.58 -log Kd |
| IVLEHGSCV (modifications not checked) [SEQ ID NO 27] | 5.74 -log Kd |
| PLNEAIMAV (modifications not checked) [SEQ ID NO 29] | 6.49 -log Kd |
| NLVRLQSGV (modifications not checked) [SEQ ID NO 30] | 4.7 -log Kd |
| RLITVNPIV (modifications not checked) [SEQ ID NO 31] | 5.64 -log Kd |
| ILIRTGLLV (modifications not checked) [SEQ ID NO 33] | 6.53 -log Kd |
| SLRPQPTEL (modifications not checked) [SEQ ID NO 34] | 5.05 -log Kd |
| FLIDGPETA (modifications not checked) [SEQ ID NO 35] | 6.05 -log Kd |
| FQPESPSKL (modifications not checked) [SEQ ID NO 36] | 6.31 -log Kd |
| ALHQVFGAI (modifications not checked) [SEQ ID NO 38] | 6.77 -log Kd |
| ELPETLETL (modifications not checked) [SEQ ID NO 9] | 6.32 -log Kd |
